Experimental data: IntAct's records for PubMed 35512704

B1: Mothers against decapentaplegic homolog 4 (Homo sapiens), Q13485 (parent)
chain: MDNMSITNTPTSNDACLSIVHSLMCHRQGGESETFAKRAIESLVKKLKEKKDELDSLITAITTNGAHPSKCVTIQRTLDGRLQVAGRKGFPHVIYARLWRWPDLHKNELKHVKYCQYAFDLKCDSVCVNPYHYERVVSPGIDLSGLTLQSNAPSSMMVKDEYVHDFEGQPSLSTEGHSIQTIQHPPSNRASTETYSTPALLAPSESNATSTANFPNIPVASTSQPASILGGSHSEGLLQIASGPQPGQQQNGFTGQPATYHHNSTTTWTGSRTAPYTPNLPHHQNGHLQHHPPMPPHPGHYWPVHNELAFQPPISNHPAPEYWCSIAYFEMDVQVGETFKVPSSCPIVTVDGYVDPSGGDRFCLGQLSNVHRTEAIERARLHIGKGVQLECKGEGDVWVRCLSDHAVFVQSYYLDREAGRAPGDAVHKIYPSAYIKVFDLRQCHRQMQQQAATAQAAAAAQAAAVAGNIPGPGSVGGIAPAISLSAAAGIGVDDLRRLCILRMSFVKGWGPDYPRQSIKETPCWIEIHLHRALQLLDEVLHTMPIADPQPLD
partner: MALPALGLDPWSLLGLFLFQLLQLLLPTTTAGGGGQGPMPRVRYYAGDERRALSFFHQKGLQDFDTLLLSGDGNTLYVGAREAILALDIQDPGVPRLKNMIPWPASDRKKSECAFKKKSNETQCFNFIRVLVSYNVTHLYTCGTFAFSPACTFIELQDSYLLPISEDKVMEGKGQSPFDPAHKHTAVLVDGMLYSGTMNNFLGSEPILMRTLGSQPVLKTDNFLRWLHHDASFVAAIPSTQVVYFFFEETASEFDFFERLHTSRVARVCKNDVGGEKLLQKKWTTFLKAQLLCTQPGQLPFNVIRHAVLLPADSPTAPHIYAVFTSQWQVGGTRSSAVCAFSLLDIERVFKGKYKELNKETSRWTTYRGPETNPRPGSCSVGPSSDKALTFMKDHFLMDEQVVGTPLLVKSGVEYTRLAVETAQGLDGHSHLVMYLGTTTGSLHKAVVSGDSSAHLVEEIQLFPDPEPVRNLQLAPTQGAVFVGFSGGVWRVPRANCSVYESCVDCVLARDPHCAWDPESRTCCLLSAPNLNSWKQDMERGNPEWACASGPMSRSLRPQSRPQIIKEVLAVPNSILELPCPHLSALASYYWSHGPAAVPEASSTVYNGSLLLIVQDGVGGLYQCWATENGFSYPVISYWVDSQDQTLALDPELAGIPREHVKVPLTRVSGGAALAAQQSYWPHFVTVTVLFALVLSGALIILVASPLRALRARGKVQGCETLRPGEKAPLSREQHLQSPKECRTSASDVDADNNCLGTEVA
B2: Mothers against decapentaplegic homolog 4 (Homo sapiens), Q13485 (parent)
chain: B1 chain
partner: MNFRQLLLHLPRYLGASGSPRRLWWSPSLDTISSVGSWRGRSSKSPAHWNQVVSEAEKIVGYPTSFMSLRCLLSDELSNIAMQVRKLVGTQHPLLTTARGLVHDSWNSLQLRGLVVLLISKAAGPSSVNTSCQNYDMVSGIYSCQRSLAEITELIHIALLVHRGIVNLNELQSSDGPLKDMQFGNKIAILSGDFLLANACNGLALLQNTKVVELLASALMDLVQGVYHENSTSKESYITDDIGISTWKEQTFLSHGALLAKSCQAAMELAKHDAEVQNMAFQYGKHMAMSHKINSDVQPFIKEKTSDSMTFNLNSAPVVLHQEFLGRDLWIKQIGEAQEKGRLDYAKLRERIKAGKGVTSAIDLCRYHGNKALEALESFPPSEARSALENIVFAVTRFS
B3: Mothers against decapentaplegic homolog 4 (Homo sapiens), Q13485 (parent)
chain: B1 chain
partner: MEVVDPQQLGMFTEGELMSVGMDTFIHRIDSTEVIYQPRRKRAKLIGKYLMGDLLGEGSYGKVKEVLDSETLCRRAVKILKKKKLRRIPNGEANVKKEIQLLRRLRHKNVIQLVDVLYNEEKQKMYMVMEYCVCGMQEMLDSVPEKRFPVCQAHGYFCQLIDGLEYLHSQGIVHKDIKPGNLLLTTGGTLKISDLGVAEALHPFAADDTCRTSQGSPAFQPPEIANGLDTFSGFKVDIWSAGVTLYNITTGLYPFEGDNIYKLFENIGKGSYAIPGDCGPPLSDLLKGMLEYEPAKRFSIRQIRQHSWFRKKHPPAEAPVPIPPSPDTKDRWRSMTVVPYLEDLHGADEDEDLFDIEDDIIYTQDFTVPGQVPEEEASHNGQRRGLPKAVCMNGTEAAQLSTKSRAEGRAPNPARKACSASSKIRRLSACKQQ
B4: Mothers against decapentaplegic homolog 4 (Homo sapiens), Q13485 (parent)
chain: B1 chain
partner: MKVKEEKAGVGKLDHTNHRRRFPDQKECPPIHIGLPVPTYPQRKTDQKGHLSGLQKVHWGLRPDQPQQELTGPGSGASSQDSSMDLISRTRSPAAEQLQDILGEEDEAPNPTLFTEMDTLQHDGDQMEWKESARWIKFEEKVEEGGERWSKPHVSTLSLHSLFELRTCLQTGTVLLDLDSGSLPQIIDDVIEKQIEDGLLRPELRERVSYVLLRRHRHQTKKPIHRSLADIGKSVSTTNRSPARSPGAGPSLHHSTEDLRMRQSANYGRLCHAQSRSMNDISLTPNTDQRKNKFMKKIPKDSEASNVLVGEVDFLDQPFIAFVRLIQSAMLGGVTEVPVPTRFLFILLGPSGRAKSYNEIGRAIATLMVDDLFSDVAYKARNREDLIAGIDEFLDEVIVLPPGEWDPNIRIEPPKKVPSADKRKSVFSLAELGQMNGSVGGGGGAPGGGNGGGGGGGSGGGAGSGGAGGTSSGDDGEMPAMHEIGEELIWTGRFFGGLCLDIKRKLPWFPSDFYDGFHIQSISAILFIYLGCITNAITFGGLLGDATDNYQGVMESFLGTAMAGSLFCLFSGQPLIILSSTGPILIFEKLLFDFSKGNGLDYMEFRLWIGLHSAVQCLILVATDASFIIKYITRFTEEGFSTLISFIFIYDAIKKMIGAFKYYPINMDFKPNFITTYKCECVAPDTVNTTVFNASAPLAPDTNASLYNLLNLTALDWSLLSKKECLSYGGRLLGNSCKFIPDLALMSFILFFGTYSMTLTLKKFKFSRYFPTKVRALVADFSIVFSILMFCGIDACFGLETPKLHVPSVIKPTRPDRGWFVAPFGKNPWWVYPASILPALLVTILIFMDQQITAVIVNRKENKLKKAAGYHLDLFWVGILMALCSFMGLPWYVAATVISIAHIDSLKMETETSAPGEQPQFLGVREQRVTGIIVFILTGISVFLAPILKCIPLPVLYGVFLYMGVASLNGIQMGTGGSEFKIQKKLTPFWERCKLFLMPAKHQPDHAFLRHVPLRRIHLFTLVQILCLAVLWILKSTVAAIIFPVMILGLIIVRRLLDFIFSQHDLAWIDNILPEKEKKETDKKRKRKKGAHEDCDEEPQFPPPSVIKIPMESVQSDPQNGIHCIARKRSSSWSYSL
B5: Mothers against decapentaplegic homolog 4 (Homo sapiens), Q13485 (parent)
chain: B1 chain
partner: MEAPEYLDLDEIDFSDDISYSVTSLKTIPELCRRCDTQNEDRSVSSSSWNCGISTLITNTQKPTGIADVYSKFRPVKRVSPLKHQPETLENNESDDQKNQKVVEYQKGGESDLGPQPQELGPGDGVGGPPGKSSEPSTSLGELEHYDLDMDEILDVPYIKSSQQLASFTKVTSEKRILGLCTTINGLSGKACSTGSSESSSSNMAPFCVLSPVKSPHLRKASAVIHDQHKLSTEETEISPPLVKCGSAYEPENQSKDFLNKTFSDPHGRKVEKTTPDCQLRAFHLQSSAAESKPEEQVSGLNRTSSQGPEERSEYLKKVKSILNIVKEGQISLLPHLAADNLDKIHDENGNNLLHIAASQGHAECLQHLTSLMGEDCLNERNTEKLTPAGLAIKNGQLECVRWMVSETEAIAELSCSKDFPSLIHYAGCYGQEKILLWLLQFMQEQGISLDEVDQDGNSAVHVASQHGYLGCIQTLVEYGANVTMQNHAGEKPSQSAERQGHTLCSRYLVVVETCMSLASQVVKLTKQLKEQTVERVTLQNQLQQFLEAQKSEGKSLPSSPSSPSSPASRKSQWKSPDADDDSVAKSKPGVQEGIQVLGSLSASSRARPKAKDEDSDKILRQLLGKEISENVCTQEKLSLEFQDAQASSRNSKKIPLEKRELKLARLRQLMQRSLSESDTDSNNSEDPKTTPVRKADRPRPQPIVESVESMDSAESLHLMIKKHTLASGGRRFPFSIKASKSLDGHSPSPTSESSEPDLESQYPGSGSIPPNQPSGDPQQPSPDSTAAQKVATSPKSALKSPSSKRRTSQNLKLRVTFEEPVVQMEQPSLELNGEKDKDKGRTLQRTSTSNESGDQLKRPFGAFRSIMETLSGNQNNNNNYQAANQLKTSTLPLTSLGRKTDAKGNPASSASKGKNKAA

Variants of: B1
Conditions: with sem4a_human SEMA4A

| Variant | effect of a mutation on the interaction |
| --- | --- |
| R361C | with no effect |

Variants of: B1
Conditions: with sem4a_human SEMA4A
Remark: another data set of the same source

| Variant | effect of a mutation on the interaction |
| --- | --- |
| G386D | with no effect |

Variants of: B2
Conditions: with dlp1_human PDSS2, Q86YH6

| Variant | effect of a mutation on the interaction |
| --- | --- |
| G386D | with no effect |

Variants of: B2
Conditions: with dlp1_human PDSS2, Q86YH6
Remark: another data set of the same source

| Variant | effect of a mutation on the interaction |
| --- | --- |
| R361H | with no effect |

Variants of: B3
Conditions: with stk11_human STK11, Q15831

| Variant | effect of a mutation on the interaction |
| --- | --- |
| G386D | with no effect |

Variants of: B4
Conditions: with s4a5_human SLC4A5, Q9BY07

| Variant | effect of a mutation on the interaction |
| --- | --- |
| G386D | with no effect |

Variants of: B4
Conditions: with s4a5_human SLC4A5, Q9BY07
Remark: another data set of the same source

| Variant | effect of a mutation on the interaction |
| --- | --- |
| R361C | with no effect |

Variants of: B5
Conditions: with sncap_human SNCAIP

| Variant | effect of a mutation on the interaction |
| --- | --- |
| G386D | with no effect |

Variants of: B5
Conditions: with sncap_human SNCAIP
Remark: another data set of the same source

| Variant | effect of a mutation on the interaction |
| --- | --- |
| R361H | with no effect |

Variants of: B5
Conditions: with sncap_human SNCAIP
Remark: another data set of the same source

| Variant | effect of a mutation on the interaction |
| --- | --- |
| R361C | with no effect |

Variants of: B5
Conditions: with sncap_human SNCAIP
Remark: another data set of the same source

| Variant | effect of a mutation on the interaction |
| --- | --- |
| D351H | with no effect |
